Results taken from PMC12045373.

Molecular target: human c-type lysozyme purified from human neutrophils (HL) (human) (UniProt P61626)
Sequence of UniProt P61626 (P61626 19-148): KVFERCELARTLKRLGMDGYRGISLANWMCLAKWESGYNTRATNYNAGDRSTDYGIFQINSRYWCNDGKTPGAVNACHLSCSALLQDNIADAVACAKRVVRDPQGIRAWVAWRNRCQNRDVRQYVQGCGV

Substance “recombinant, mature Neisseria gonorrhoeae Adhesin Complex Protein (rACP) (natural protein)” has a percent of HL hydrolytic activity restored in the presence of rACP by pooled terminal RO serum (polyclonal) of mice immunized with rACP alone of 19.3%, a percent of HL hydrolytic activity restored in the presence of rACP by pooled terminal RO serum (polyclonal) of mice immunized with rACP+CpG of 59.9% and a percent of HL hydrolytic activity restored in the presence of rACP by pooled terminal SV serum (polyclonal) of mice immunized with rACP alone of 30.1%. It also gave a percent of HL hydrolytic activity restored in the presence of rACP by pooled terminal SV serum (polyclonal) of mice immunized with rACP+CpG of 75.2%.
